Laboratory results taken from patent EP0835662A2.
One block for each substance: values may come before it.

What was measured:
[1] = target: receptor with a moderately high affinity for Substance P on primary tumor cells of human colon adenocarcinoma (human); assay: 125I-Substance P receptor-ligand assay on cells, Scatchard (LIGAND); culture PTC-2
[2] = target: receptor with a moderately high affinity for Substance P on primary tumor cells of human colon adenocarcinoma (human); assay: 125I-Substance P receptor-ligand assay on cells, Scatchard (LIGAND); culture PTC-6
[3] = target: receptor with a moderately high affinity for Substance P on primary tumor cells of human colon adenocarcinoma (human); assay: 125I-Substance P receptor-ligand assay on cells, Scatchard (LIGAND); culture PTC-5
[4] = target: receptor with a moderately high affinity for Substance P on primary tumor cells of human colon adenocarcinoma (human); assay: 125I-Substance P receptor-ligand assay on cells, Scatchard (LIGAND); culture PTC-3
[5] = target: receptor with a moderately high affinity for Substance P on primary tumor cells of human colon adenocarcinoma (human); assay: 125I-Substance P receptor-ligand assay on cells, Scatchard (LIGAND); culture PTC-4
[6] = target: receptor with a moderately high affinity for Substance P on primary tumor cells of human colon adenocarcinoma (human); assay: 125I-Substance P receptor-ligand assay on cells, Scatchard (LIGAND); culture PTC-1
[7] = target: receptor with a moderately high affinity for Substance P on primary tumor cells of human colon adenocarcinoma (human); assay: 125I-Substance P receptor-ligand assay on cells, Scatchard (LIGAND); culture PTC-8
[8] = target: receptor with a moderately high affinity for Substance P on primary tumor cells of human colon adenocarcinoma (human); assay: 125I-Substance P receptor-ligand assay on cells, Scatchard (LIGAND); culture PTC-7
[9] = target: high-affinity receptor for bombesin on primary tumor cells of human colon adenocarcinoma (human); assay: 125I-bombesin receptor-ligand assay on cells, Scatchard (LIGAND); culture PTC-3
[10] = target: high-affinity receptor for bombesin on primary tumor cells of human colon adenocarcinoma (human); assay: 125I-bombesin receptor-ligand assay on cells, Scatchard (LIGAND); culture PTC-1
[11] = target: high-affinity receptor for bombesin on primary tumor cells of human colon adenocarcinoma (human); assay: 125I-bombesin receptor-ligand assay on cells, Scatchard (LIGAND); culture PTC-8
[12] = target: high-affinity receptor for bombesin on primary tumor cells of human colon adenocarcinoma (human); assay: 125I-bombesin receptor-ligand assay on cells, Scatchard (LIGAND); culture PTC-7
[13] = target: high-affinity receptor for bombesin on primary tumor cells of human colon adenocarcinoma (human); assay: 125I-bombesin receptor-ligand assay on cells, Scatchard (LIGAND); culture PTC-2
[14] = target: high-affinity receptor for bombesin on primary tumor cells of human colon adenocarcinoma (human); assay: 125I-bombesin receptor-ligand assay on cells, Scatchard (LIGAND); culture PTC-6
[15] = target: high-affinity receptor for bombesin on primary tumor cells of human colon adenocarcinoma (human); assay: 125I-bombesin receptor-ligand assay on cells, Scatchard (LIGAND); culture PTC-5
[16] = target: high-affinity receptor for bombesin on primary tumor cells of human colon adenocarcinoma (human); assay: 125I-bombesin receptor-ligand assay on cells, Scatchard (LIGAND); culture PTC-4
[17] = target: receptor with a moderately high affinity for somatostatin on primary tumor cells of human colon adenocarcinoma (human); assay: 125I-somatostatin receptor-ligand assay on cells, Scatchard (LIGAND); culture PTC-2
[18] = target: high-affinity receptor for somatostatin on primary tumor cells of human colon adenocarcinoma (human); assay: as above
[19] = target: receptor with a moderately high affinity for somatostatin on primary tumor cells of human colon adenocarcinoma (human); assay: 125I-somatostatin receptor-ligand assay on cells, Scatchard (LIGAND); culture PTC-1
[20] = target: high-affinity receptor for somatostatin on primary tumor cells of human colon adenocarcinoma (human); assay: as above
[21] = target: receptor with a moderately high affinity for somatostatin on primary tumor cells of human colon adenocarcinoma (human); assay: 125I-somatostatin receptor-ligand assay on cells, Scatchard (LIGAND); culture PTC-4
[22] = target: high-affinity receptor for somatostatin on primary tumor cells of human colon adenocarcinoma (human); assay: as above
[23] = target: receptor with a moderately high affinity for somatostatin on primary tumor cells of human colon adenocarcinoma (human); assay: 125I-somatostatin receptor-ligand assay on cells, Scatchard (LIGAND); culture PTC-7
[24] = target: high-affinity receptor for somatostatin on primary tumor cells of human colon adenocarcinoma (human); assay: as above
[25] = target: receptor with a moderately high affinity for somatostatin on primary tumor cells of human colon adenocarcinoma (human); assay: 125I-somatostatin receptor-ligand assay on cells, Scatchard (LIGAND); culture PTC-8
[26] = target: high-affinity receptor for somatostatin on primary tumor cells of human colon adenocarcinoma (human); assay: as above
[27] = target: receptor with a moderately high affinity for somatostatin on primary tumor cells of human colon adenocarcinoma (human); assay: 125I-somatostatin receptor-ligand assay on cells, Scatchard (LIGAND); culture PTC-3
[28] = target: high-affinity receptor for somatostatin on primary tumor cells of human colon adenocarcinoma (human); assay: as above
[29] = target: receptor with a moderately high affinity for somatostatin on primary tumor cells of human colon adenocarcinoma (human); assay: 125I-somatostatin receptor-ligand assay on cells, Scatchard (LIGAND); culture PTC-6
[30] = target: high-affinity receptor for somatostatin on primary tumor cells of human colon adenocarcinoma (human); assay: as above
[31] = target: receptor with a moderately high affinity for somatostatin on primary tumor cells of human colon adenocarcinoma (human); assay: 125I-somatostatin receptor-ligand assay on cells, Scatchard (LIGAND); culture PTC-5
[32] = target: high-affinity receptor for somatostatin on primary tumor cells of human colon adenocarcinoma (human); assay: as above
[33] = target: high-affinity receptor for VIP on primary tumor cells of human colon adenocarcinoma (human); assay: 125I-VIP receptor-ligand assay on cells, Scatchard (LIGAND); culture PTC-8
[34] = target: receptor with a moderately high affinity for VIP on primary tumor cells of human colon adenocarcinoma (human); assay: as above
[35] = target: high-affinity receptor for VIP on primary tumor cells of human colon adenocarcinoma (human); assay: 125I-VIP receptor-ligand assay on cells, Scatchard (LIGAND); culture PTC-1
[36] = target: receptor with a moderately high affinity for VIP on primary tumor cells of human colon adenocarcinoma (human); assay: as above
[37] = target: high-affinity receptor for VIP on primary tumor cells of human colon adenocarcinoma (human); assay: 125I-VIP receptor-ligand assay on cells, Scatchard (LIGAND); culture PTC-7
[38] = target: receptor with a moderately high affinity for VIP on primary tumor cells of human colon adenocarcinoma (human); assay: as above
[39] = target: high-affinity receptor for VIP on primary tumor cells of human colon adenocarcinoma (human); assay: 125I-VIP receptor-ligand assay on cells, Scatchard (LIGAND); culture PTC-3
[40] = target: receptor with a moderately high affinity for VIP on primary tumor cells of human colon adenocarcinoma (human); assay: as above
[41] = target: high-affinity receptor for VIP on primary tumor cells of human colon adenocarcinoma (human); assay: 125I-VIP receptor-ligand assay on cells, Scatchard (LIGAND); culture PTC-6
[42] = target: receptor with a moderately high affinity for VIP on primary tumor cells of human colon adenocarcinoma (human); assay: as above
[43] = target: high-affinity receptor for VIP on primary tumor cells of human colon adenocarcinoma (human); assay: 125I-VIP receptor-ligand assay on cells, Scatchard (LIGAND); culture PTC-2
[44] = target: receptor with a moderately high affinity for VIP on primary tumor cells of human colon adenocarcinoma (human); assay: as above
[45] = target: high-affinity receptor for VIP on primary tumor cells of human colon adenocarcinoma (human); assay: 125I-VIP receptor-ligand assay on cells, Scatchard (LIGAND); culture PTC-5
[46] = target: receptor with a moderately high affinity for VIP on primary tumor cells of human colon adenocarcinoma (human); assay: as above
[47] = target: high-affinity receptor for VIP on primary tumor cells of human colon adenocarcinoma (human); assay: 125I-VIP receptor-ligand assay on cells, Scatchard (LIGAND); culture PTC-4
[48] = target: receptor with a moderately high affinity for VIP on primary tumor cells of human colon adenocarcinoma (human); assay: as above

Kd [1]: 172 nM
R(M/L) receptor number [1]: 1.71e-08 M/L
Kd [2]: 234 nM
R(M/L) receptor number [2]: 2.95e-08 M/L
Kd [3]: 21 nM
R(M/L) receptor number [3]: 6.2e-09 M/L
Kd [4]: 134 nM
R(M/L) receptor number [4]: 1.49e-08 M/L
Kd [5]: 154 nM
R(M/L) receptor number [5]: 1.66e-08 M/L
Kd [6]: 154 nM
R(M/L) receptor number [6]: 1.85e-08 M/L
Kd [7]: 186 nM
R(M/L) receptor number [7]: 1.32e-08 M/L
Kd [8]: 26.2 nM
R(M/L) receptor number [8]: 7.48e-09 M/L
Substance: Substance P (from UniProt P20366 58-68) (peptide)

Kd [9]: 0.569 nM
R(M/L) receptor number [9]: 2.97e-10 M/L
Kd [10]: 0.439 nM
R(M/L) receptor number [10]: 2.24e-10 M/L
Kd [11]: 0.883 nM
R(M/L) receptor number [11]: 2.85e-10 M/L
Kd [12]: 0.67 nM
R(M/L) receptor number [12]: 2.55e-10 M/L
Kd [13]: 0.593 nM
R(M/L) receptor number [13]: 3.22e-10 M/L
Kd [14]: 0.485 nM
R(M/L) receptor number [14]: 2.24e-10 M/L
Kd [15]: 0.462 nM
R(M/L) receptor number [15]: 3.35e-10 M/L
Kd [16]: 0.568 nM
R(M/L) receptor number [16]: 2.89e-10 M/L
Substance: bombesin (peptide)

Kd [17]: 63.5 nM
R(M/L) receptor number [17]: 2.24e-09 M/L
Kd [18]: 0.17 nM
R(M/L) receptor number [18]: 8.99e-11 M/L
Kd [19]: 93.7 nM
R(M/L) receptor number [19]: 4.41e-09 M/L
Kd [20]: 0.323 nM
R(M/L) receptor number [20]: 6.01e-11 M/L
Kd [21]: 56.4 nM
R(M/L) receptor number [21]: 2.75e-09 M/L
Kd [22]: 0.0865 nM
R(M/L) receptor number [22]: 4.66e-11 M/L
Kd [23]: 128 nM
R(M/L) receptor number [23]: 3.89e-09 M/L
Kd [24]: 1.11 nM
R(M/L) receptor number [24]: 9.81e-11 M/L
Kd [25]: 99.2 nM
R(M/L) receptor number [25]: 6.59e-09 M/L
Kd [26]: 0.964 nM
R(M/L) receptor number [26]: 1.74e-10 M/L
Kd [27]: 134 nM
R(M/L) receptor number [27]: 5.09e-09 M/L
Kd [28]: 1.15 nM
R(M/L) receptor number [28]: 1.06e-10 M/L
R(M/L) receptor number [29]: 1.16e-09 M/L
Kd [30]: 0.545 nM
R(M/L) receptor number [30]: 6.85e-11 M/L
Kd [31]: 15.4 nM
R(M/L) receptor number [31]: 1.24e-09 M/L
Kd [32]: 0.378 nM
R(M/L) receptor number [32]: 5.82e-11 M/L
Substance: somatostatin (from UniProt P61278 103-116) (peptide)

Kd [33]: 1.78 nM
R(M/L) receptor number [33]: 1.5e-10 M/L
Kd [34]: 8420 nM
R(M/L) receptor number [34]: 8.49e-09 M/L
Kd [35]: 1.04 nM
R(M/L) receptor number [35]: 4.83e-11 M/L
Kd [36]: 633 nM
R(M/L) receptor number [36]: 1.78e-08 M/L
Kd [37]: 1.49 nM
R(M/L) receptor number [37]: 6.12e-11 M/L
Kd [38]: 555 nM
R(M/L) receptor number [38]: 9.37e-09 M/L
Kd [39]: 6.35 nM
R(M/L) receptor number [39]: 2.45e-10 M/L
Kd [40]: 1510 nM
R(M/L) receptor number [40]: 2.93e-08 M/L
Kd [41]: 4.41 nM
R(M/L) receptor number [41]: 1.05e-10 M/L
Kd [42]: 1880 nM
R(M/L) receptor number [42]: 3.21e-08 M/L
Kd [43]: 1.45 nM
R(M/L) receptor number [43]: 6.23e-11 M/L
Kd [44]: 423 nM
R(M/L) receptor number [44]: 1.03e-08 M/L
Kd [45]: 19.5 nM
R(M/L) receptor number [45]: 5.29e-10 M/L
Kd [46]: 3510 nM
R(M/L) receptor number [46]: 8.72e-08 M/L
Kd [47]: 11 nM
R(M/L) receptor number [47]: 2.75e-10 M/L
Kd [48]: 945 nM
R(M/L) receptor number [48]: 5.03e-08 M/L
Substance: vasoactive intestinal peptide (VIP) (from UniProt P01282 125-152)
